Results taken from US20240390512A1 (Daiichi Sankyo, published 2024).
Numbering of substitutions follows the chain as printed.

B1: rat anti-human CDH6 monoclonal antibody rG019 (antibody, rat IgG2b, V domains shown)
VH: QVQLQQSGAELVKPGSSVKISCKASGYTFTRNFMHWIKQQPGNGLEWIGWIYCGDGETEYNQKFNGKATLTADRSSSTAYMELSRLTSEDSAVYFCARGVYGGFAGGYFDFWGQGVMVTVSS
VL: DIQMTQSPSLLSASVGDRVTLNCKASQNIYKNLAWYQQKLGEGPKLLIYDANTLQTGIPSRFSGSGSGSDFTLTISSLQPEDVATYFCQQYYSGWAFGGVTNLELKRA
notes: Purified from hybridoma supernatant; also called rG019 antibody
B2: rat anti-human CDH6 monoclonal antibody rG056 (antibody, rat IgG2b, V domains shown)
VH: EVQLQESGPGLVKPSQSLSLTCSVTDYSITTYFWGWIRKFPGNKMEWMGYMSYRGGTSYNPSLKSRISITRDTSKNQFFLQLNSVTTEDTATYYCARCPNYGGHSLVFDYWGQGVMVTVSS
VL: DVQMTQSPSSLAASPGESVSISCRATKSIGIYLAWYQQKPGKTFKLLIYSGSTLQSGTPSRFSGSGSGTDFTLTIRSLEPEDFGLYFCQQFYENPFTFGSGTKLEIRR
notes: Purified from hybridoma supernatant; also called rG056 antibody
B3: rat anti-human CDH6 monoclonal antibody rG055 (antibody, rat IgG2b, V domains shown)
VH: EVQLQESGPGLVRPSQSLSLSCSVTDYSITSNYWGWIRRFPGNKMEWMGYITYSGYTSYNPSLQSRISITRDTSKNQFFLQLNSVTAEDTATYYCARSINHGGYSYVVDAWGPGASVTVSS
VL: DVQMTHSPSYLAASPGESVSISCKTSKNISNYLVWYQQKPGEAYKLLIYSGSTLQSGTPSRFSGSGSGTDFTLTIRSLEPEDFGLYFCQQYYEKPFTFGSGTKLEIKR
notes: Purified from hybridoma supernatant; also called rG055 antibody
B4: rat anti-human CDH6 monoclonal antibody rG061 (antibody, rat IgG2b, V domains shown)
VH: EVQLQESGPGLVKPSQSLSLTCSVTGYSITTYYWGWIRKFPGNKMEWMGYISYSGRTSYNPSLKSRMSITRDASKNQFFLQLNSVTTDDTATYYCARSPINHGGYWYFDFWGPGTMVTVSS
VL: B3 VL with H6Q, T25A, S26T, N28S, V34A, L46V, F87S, F96L
notes: Purified from hybridoma supernatant; also called rG061 antibody

The binders below were run against T1, EC3 deletion mutant of human CDH6, on cells (human, UniProt P55285 54-790) (assay: flow cytometry; 293α cells transfected with EC3-deleted hCDH6 (open line) against untransfected 293α cells (shaded); anti-rat IgG-FITC).
T1 construct: in p3×FLAG-CMV-9; also called EC3-deleted hCDH6
T1 sequence: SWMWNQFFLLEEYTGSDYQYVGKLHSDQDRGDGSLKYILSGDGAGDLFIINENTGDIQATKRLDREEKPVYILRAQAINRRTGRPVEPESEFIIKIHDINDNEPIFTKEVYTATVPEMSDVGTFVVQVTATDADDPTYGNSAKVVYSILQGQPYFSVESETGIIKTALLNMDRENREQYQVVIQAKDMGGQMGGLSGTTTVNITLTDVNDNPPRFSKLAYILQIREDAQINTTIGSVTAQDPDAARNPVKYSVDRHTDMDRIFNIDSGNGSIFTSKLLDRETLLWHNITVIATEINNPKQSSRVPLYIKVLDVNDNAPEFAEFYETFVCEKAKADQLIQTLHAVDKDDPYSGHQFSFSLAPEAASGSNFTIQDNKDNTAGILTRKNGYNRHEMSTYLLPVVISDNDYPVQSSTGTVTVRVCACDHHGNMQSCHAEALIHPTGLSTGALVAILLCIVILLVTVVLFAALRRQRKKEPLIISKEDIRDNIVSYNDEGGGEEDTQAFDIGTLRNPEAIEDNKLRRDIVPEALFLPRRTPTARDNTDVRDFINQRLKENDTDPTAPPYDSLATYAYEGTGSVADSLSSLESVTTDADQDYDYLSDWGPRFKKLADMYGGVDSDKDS

Row | Binder | binding result
1 | B1 | no binding (tested: 20 nM)
2 | B2 | no binding (tested: 20 nM)
3 | B3 | no binding (tested: 20 nM)
4 | B4 | no binding (tested: 20 nM)

What follows are binders tested against T2, human CDH6 (cadherin-6), full-length, on cells (human, UniProt P55285 54-790) (assay: flow cytometry; hCDH6-transfected 293T cells (open line) against untransfected 293T cells (shaded); antibody 10 ng/mL; anti-rat IgG-FITC).
T2 construct: also called hCDH6; full-length hCDH6
T2 sequence: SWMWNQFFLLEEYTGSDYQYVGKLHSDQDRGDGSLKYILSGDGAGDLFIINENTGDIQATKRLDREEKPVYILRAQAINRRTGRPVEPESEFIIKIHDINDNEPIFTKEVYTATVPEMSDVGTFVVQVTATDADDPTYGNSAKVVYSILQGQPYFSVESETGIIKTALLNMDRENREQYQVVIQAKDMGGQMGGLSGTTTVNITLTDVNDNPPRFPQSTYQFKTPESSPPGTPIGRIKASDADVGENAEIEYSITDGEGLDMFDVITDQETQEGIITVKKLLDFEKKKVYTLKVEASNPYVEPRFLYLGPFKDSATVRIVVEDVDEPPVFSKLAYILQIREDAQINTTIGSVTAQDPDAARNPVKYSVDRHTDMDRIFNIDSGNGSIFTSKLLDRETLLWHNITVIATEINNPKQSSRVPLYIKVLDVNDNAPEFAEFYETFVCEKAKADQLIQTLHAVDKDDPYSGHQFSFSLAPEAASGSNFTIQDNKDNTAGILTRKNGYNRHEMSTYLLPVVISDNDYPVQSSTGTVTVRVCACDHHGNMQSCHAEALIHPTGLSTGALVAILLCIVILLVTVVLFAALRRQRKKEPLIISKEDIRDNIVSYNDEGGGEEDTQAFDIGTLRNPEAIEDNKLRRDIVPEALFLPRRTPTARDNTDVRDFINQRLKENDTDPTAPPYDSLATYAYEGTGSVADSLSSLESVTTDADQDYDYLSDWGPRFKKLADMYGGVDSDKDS

Row | Binder | binding result
5 | B1 | binds
6 | B2 | binds
7 | B3 | binds
8 | B4 | binds

These binders were tested against T3, cynomolgus monkey CDH6, on cells (cynomolgus monkey, UniProt P55285 54-790 (human entry)) (assay: Cell-ELISA and flow cytometry screening with hybridoma supernatants on transfected cells).
T3 construct: Expressed from pcDNA3.1-cynoCDH6; also called cynoCDH6
T3 sequence: T2 sequence with Y300H, H457R, A707G

Row | Binder | binding result
9 | B1 | binds
10 | B2 | binds
11 | B3 | binds
12 | B4 | binds
